For two molecules, stoichiometry N, Km and kcat results are on record in publication PMC4580590.

The target of series [1] is D-lactate dehydrogenase from Sporolactobacillus inulinus CASD (DLDH744) (Sporolactobacillus inulinus CASD). Nature of the series: crystal structure; DLDH744 in complex with NAD+; molecular replacement, refined at 3.15 Å; homo-dimer in one asymmetric unit.
Substrate in series [2]: CC(=O)C(=O)O
The series is described as follows: purified protein. The note with it: 100 mM PBS pH 5.5, 30°C, 0.2 mM NADH or NADPH (which one not told). It is filed as biochemical, Sporolactobacillus inulinus.

Substrate in series [3]: N[C@@H](CCC(=O)O)C(=O)O
Nature of the series: purified protein. Type of series: biochemical, Sporolactobacillus inulinus. To be noted: 100 mM PBS pH 5.5, 30°C, oxidative deamination, cofactor of the kinetic run not clearly told (0.2 mM NAD(P)+ in activity assay).

Substrate in series [4]: O=C(O)C(=O)Cc1ccccc1
The series is described as follows: purified protein. Type of series: biochemical, Sporolactobacillus inulinus. To be noted: 100 mM PBS pH 5.5, 30°C, 0.2 mM NADH or NADPH (which one not told).

In general, stoichiometry N refers to a count of units in the complex or per binding partner. Consider “D-lactate dehydrogenase from Sporolactobacillus inulinus CASD (DLDH744) (enzyme)”, for which, in series [1], the stoichiometry N worked out at 2.

B1: DLDH744 (Sporolactobacillus inulinus CASD) (protein)
chain: MKIIMFSVRDDEEAAIREWEKKTGVQVDINRLELDAETAQLTKGYDGIVIQQRSHISNPAVYETLQKNGLRQLTSRTAGYDMIDLEQASERGLVVTNVPAYSPNSVAELALTQTMRLIRNLPLFDARGAEQDFRWAGLMAREIRSLTVGIIGAGRIGGTVARLFKALGATVIANDIVERVELKDIVTYVSKEELLQAADVVTLHVPLMDSTTQLIDADALALMKNDAVLINASRGPVVDTDALIAALQNKQIAGAALDTLNGEEHFFNQDLCGKELPSEQLKVLRTLPNVLITPHIGFYTNKAVQNMVEISLNDVLAILKTGTSEHQLNKVAVEN
notes: full length, 335 residues, homodimer; vector pET-28a(+), E. coli BL21(DE3); purified
As a reminder, the Km is the concentration of substrate that gives half-maximal velocity. For orientation: kcat means the number of substrate molecules converted per active site and unit of time at saturation. Consider B1, for which the results for the Km in the series “purified protein [2]”, in “purified protein [3]” and in the series “purified protein [4]” were 3.4 ± 0.02 mM, 5.7 ± 0.09 mM and 3.32 ± 0.08 mM, respectively. For the same molecule, the figures for the kcat in the series “purified protein [2]” and in the series “purified protein [3]” were 8.537 ± 0.127 s⁻¹ and 0.372 ± 0.0017 s⁻¹, respectively.
